Columns and labels:
[1] = target: T1, human RSV pre-fusion F protein (human respiratory syncytial virus (hRSV), UniProt P03420 26-513); assay: SPR (Biacore)
T1 construct: also called hRSV pre-F

[2] = target: T2, human RSV post-fusion F protein LZF21 (human respiratory syncytial virus (hRSV), UniProt P03420 26-524); assay: SPR (Biacore)
T2 construct: extracellular domain; Trimeric; also called LZF21-biotin

[3] = target: T3, human RSV A F protein (ELISA of Example 6; pre- or post-fusion form not stated) (human RSV A, UniProt P03420 26-513); assay: ELISA on coated F protein; lower end of the range
[4] = target: T3, human RSV A F protein (ELISA of Example …); assay: ELISA, RSV A F protein on the plate, antibody titrated, OD450
[5] = target: T1, human RSV pre-fusion F protein; assay: ELISA on coated pre-F
[6] = target: T2, human RSV post-fusion F protein LZF21; assay: ELISA on coated post-F
[7] = target: T1, human RSV pre-fusion F protein; assay: SPR, Biacore T200, 1:1 Langmuir fit
Description: (§1) Background subtraction binding sensorgrams were used for analyzing the rate constant of association (kₐ) and dissociation (kd), and the equilibrium dissociation constant KD. The resulting data sets were fitted with a 1:1 Langmuir Binding Model using the Biacore T200 evaluation software (version 2.0).

[8] = target: T2, human RSV post-fusion F protein LZF21; assay: SPR, Biacore T200, 1:1 Langmuir fit
Description: as §1

[9] = target: T4, RSV-F protein R429A mutant, expressed in human cells (UniProt P03420 26-574); assay: shotgun mutagenesis alanine scan, antibody binding to F mutant expressed in human cells
T4 construct: whole, on cells

[10] = target: T5, RSV-F protein I432A mutant, expressed in human cells (UniProt P03420 26-574); assay: as above
T5 construct: whole, on cells

[11] = target: human RSV pre-fusion F protein (human respiratory syncytial virus (hRSV), UniProt P03420 26-513); assay: ELISA on coated pre-F
[12] = target: human RSV post-fusion F protein LZF21 (human respiratory syncytial virus (hRSV), UniProt P03420 26-524); assay: ELISA on coated post-F

Binder	Kd [1] [pM]	koff [1] [s⁻¹]	kon [1] [M⁻¹ s⁻¹]	Kd [2] [pM]	koff [2] [s⁻¹]	kon [2] [M⁻¹ s⁻¹]	EC50 [11] [ng/mL]	other results
RB1+YTE (human IgG1 with M252Y/S254T/T256E in the Fc) (antibody, V domains shown) VH: EVQLVESGGGLVRPGRSLRLSCTVSGFSFDDSAMSWVRQAPGKGLEWISFIKSKTYGGTKEYAASVKGRFTISRDDSKNIAYLQMNSLKTEDTAVYYCTRGAPYGGNSDYYYGLDVWGQGTTVTVSS VL: DIQMTQSPSSLSASVGDRVTITCRTSQDVRGALAWYQQKPGKAPKLLIFDASSLETGVPSRFSGSGSGTVFTLTISSLQPEDFAAYYCQQFLDFPFTFGQGTRLEIKR	71	0.00023	3.2e+06	480	0.0007	1.4e+06	–	EC50 [3]: 1.97 to 2.46 ng/mL; EC50 [4]: 2.24 ng/mL
RB1 (recombinant human IgG1, CHO-3E7 expressed) (antibody, V domains shown, Variable domains converted to human IgG1 and expressed in CHO-3E7 cells; also called RB1 MAb; anti-human RSV F protein antibody RB1) VH: EVQLVESGGGLVRPGRSLRLSCTVSGFSFDDSAMSWVRQAPGKGLEWISFIKSKTYGGTKEYAASVKGRFTISRDDSKNIAYLQMNSLKTEDTAVYYCTRGAPYGGNSDYYYGLDVWGQGTTVTVSS VL: DIQMTQSPSSLSASVGDRVTITCRTSQDVRGALAWYQQKPGKAPKLLIFDASSLETGVPSRFSGSGSGTVFTLTISSLQPEDFAAYYCQQFLDFPFTFGQGTRLEIKR	31	0.00014	4.4e+06	410	0.0009	2.2e+06	–	EC50 [5]: 7.05 ng/mL; EC50 [6]: 14.1 ng/mL; Kd [7]: 31 pM; koff [7]: 0.00014 s⁻¹; kon [7]: 4.4e+06 M⁻¹ s⁻¹; Kd [8]: 410 pM; koff [8]: 0.0009 s⁻¹; kon [8]: 2.2e+06 M⁻¹ s⁻¹; Binding Reactivity (% WT) [9]: 33.1 % WT; Binding Reactivity (% WT) [10]: 36.7 % WT
D25 antibody (antibody, V domains shown) VH: QVQLVQSGAEVKKPGSSVMVSCQASGGPLRNYIINWLRQAPGQGPEWMGGIIPVLGTVHYAPKFQGRVTITADESTDTAYIHLISLRSEDTAMYYCATETALVVSTTYLPHYFDNWGQGTLVTVSS VL: DIQMTQSPSSLSAAVGDRVTITCQASQDIVNYLNWYQQKPGKAPKLLIYVASNLETGVPSRFSGSGSGTDFSLTISSLQPEDVATYYCQQYDNLPLTFGGGTKVEIKR	–	–	–	–	–	–	8.94	–
palivizumab (SYNAGIS) (antibody, V domains shown) VH: QVTLRESGPALVKPTQTLTLTCTFSGFSLSTSGMSVGWIRQPPGKALEWLADIWWDDKKDYNPSLKSRLTISKDTSKNQVVLKVTNMDPADTATYYCARSMITNWYFDVWGAGTTVTVSS VL: DIQMTQSPSTLSASVGDRVTITCKCQLSVGYMHWYQQKPGKAPKLLIYDTSKLASGVPSRFSGSGSGTEFTLTISSLQPDDFATYYCFQGSGYPFTFGGGTKLEIK	–	–	–	–	–	–	17.4	EC50 [12]: 10.5 ng/mL

Source: US20210188951A1 (Merck Sharp & Dohme, published 2021)
